Test results reported in the supplement of paper PMC7877785.
± gives the uncertainty stated by the source.

Test: self-splicing fitness, log relative to wild type (ln ratio); higher = more splicing; Tetrahymena group I intron in knt gene, E. coli kanamycin selection, DiMSum; sequences stand for … in CUCUCU…GGAGGGAAAAGUUAUCAGGCAUGCACCUGGUAGCUAGUCUUUAAACCAAUAGAUUGCAUCGGUUUAAAAGGCAAGACCGUCAAAUUGCGGGAAAGGGGUCAACAGCCGUUCAGUACCAAGUCUCAGGGGAAACUUUGAGAUGGCCUUGCAAAGGGUAUGGUAAUAAGCUGACGGACAUGGUCCUAACCACGCAGCCAAGUCCUAAGUCAACAGAUCUUCUGUUGAUAUGGAUGCAGUUCACAGACUAAAUGUCGGUCGGGGAAGAUGUAUUCUUCUCAUAAGAUAUAGUCGGACCUCUCCUUAAUGGGAGCUAGCGGAUGAAGUGAUGCAACACUGGAGCCGCUGGGAACUAAUUUGUAUGCGAAAGUAUAUUGAUUAGUUUUGGAGUACUCGUGGUCG
Method in brief: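 Pooled colonies went to amplicon sequencing on an Illumina HiSeq 2500 after six replicate transformations. The plates were LB agar with 100 μg/mL carbenicillin, 50 μM IPTG and 0.2% rhamnose, with or without 25 μg/mL kanamycin, incubated overnight at 37°C or 30°C. The E. coli BL21(DE3) library had all eight P1ex-region intron nucleotides randomised, the intron placed in the knt kanamycin-resistance gene on pET-22b(+). DiMSum fitness is the error-weighted combination of replicate fold changes, kanamycin against none, normalised to wild type.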

Row | Sequence | self-splicing fitness (ln) (30 °C) | self-splicing fitness (ln) (37 °C)
1 | UGUAAGCAAUAUUACGGGUU | -3.86 ± 0.27 | -2 ± 0.2
2 | GCUUAGCAAUAUUACGCGUG | -1.74 ± 0.1 | -1.64 ± 0.11
3 | GGACAGCAAUAUUACGUUCG | -0.223 ± 0.076 | 0.0323 ± 0.095
4 | CGGCAGCAAUAUUACGGGAC | – | -2.85 ± 0.47
5 | CGGAAGCAAUAUUACGGCCU | 0.133 ± 0.15 | 0.152 ± 0.16
6 | GACUAGCAAUAUUACGUCCG | – | -1.5 ± 0.31
7 | CUGAAGCAAUAUUACGCCCU | -3.03 ± 0.22 | -2.86 ± 0.47
8 | CAUAAGCAAUAUUACGCUUU | -3.86 ± 0.26 | -2.73 ± 0.24
9 | GAUGAGCAAUAUUACGACGA | -1.5 ± 0.13 | -1.3 ± 0.15
10 | ACUCAGCAAUAUUACGUCAG | -2.31 ± 0.1 | -2.68 ± 0.17
11 | GGUUAGCAAUAUUACGUGUG | -2.43 ± 0.12 | -1.56 ± 0.11
12 | AAUGAGCAAUAUUACGCGCG | -2.52 ± 0.18 | -1.9 ± 0.2
13 | GCGUAGCAAUAUUACGUGGG | -3.84 ± 0.22 | -3.04 ± 0.24
14 | GACGAGCAAUAUUACGGCCU | -1.85 ± 0.096 | -1.12 ± 0.14
15 | CCCUAGCAAUAUUACGGCUA | -2.53 ± 0.17 | -3.13 ± 0.31
16 | GACGAGCAAUAUUACGAAAC | -4.29 ± 0.3 | -3.14 ± 0.28
17 | CCGCAGCAAUAUUACGCAAG | -1.41 ± 0.095 | -1.18 ± 0.13
18 | CGAUAGCAAUAUUACGUGUU | -4.25 ± 0.14 | -2.3 ± 0.1
19 | CCUAAGCAAUAUUACGUCUU | -3.47 ± 0.18 | -2.42 ± 0.22
20 | CUCGAGCAAUAUUACGGCAU | -2.71 ± 0.19 | -3.09 ± 0.37

Row | Sequence | self-splicing fitness (ln) (30 °C) | self-splicing fitness (ln) (37 °C)
21 | CACUAGCAAUAUUACGCUAG | -3.17 ± 0.26 | -2.41 ± 0.27
22 | UUCGAGCAAUAUUACGCGUC | -2.99 ± 0.23 | -2.34 ± 0.37
23 | GCGGAGCAAUAUUACGCUCC | – | -0.469 ± 0.39
24 | UUGCAGCAAUAUUACGUGCG | -3.18 ± 0.16 | -1.43 ± 0.14
25 | ACGGAGCAAUAUUACGCUCA | -1.04 ± 0.19 | -0.0662 ± 0.3
26 | CAUUAGCAAUAUUACGUGGU | -4.46 ± 0.21 | -2.6 ± 0.16
27 | ACGUAGCAAUAUUACGCCUU | -1.42 ± 0.064 | -0.00228 ± 0.076
28 | CAUUAGCAAUAUUACGGUGA | -2.79 ± 0.19 | -1.92 ± 0.13
29 | UCGCAGCAAUAUUACGCUGC | -2.62 ± 0.49 | -0.264 ± 0.26
30 | AAAAAGCAAUAUUACGCAAG | -1.78 ± 0.097 | -0.583 ± 0.1
31 | CCUAAGCAAUAUUACGAGAA | -2.67 ± 0.36 | –
32 | UCUAAGCAAUAUUACGUAAU | -3.41 ± 0.2 | -1.66 ± 0.19
33 | AGUAAGCAAUAUUACGCAAA | -2.45 ± 0.35 | -1.46 ± 0.25
34 | AACUAGCAAUAUUACGUAAC | 0.169 ± 0.15 | -1.5 ± 0.3
35 | GAAGAGCAAUAUUACGCGUA | -3.68 ± 0.37 | -2.05 ± 0.22
36 | CACAAGCAAUAUUACGGCGG | -0.406 ± 0.042 | -0.181 ± 0.052
37 | GUGGAGCAAUAUUACGGGUU | -3.16 ± 0.18 | -3.15 ± 0.48
38 | GACAAGCAAUAUUACGAGGA | -3.16 ± 0.21 | -2.42 ± 0.14
39 | GAUCAGCAAUAUUACGAGGU | -2.98 ± 0.24 | -2.84 ± 0.22
